Reference: a protein production outcome set (Wang et al. 2014)

Assay: label from the status in PepcDB records

MFANWLLVSVSIGYIGLLFLIAHLGGKYRNKLEAKQQTIIYALSLGVYCTSWGFLGTTAQAANHSFTFLSVYLAPIVLFVFAWPFIQRIIKTSLKLKITSIADLLSARFGKSQTLAIIITLVALIGTMPYIALQLKAIVNSYQILQETQDLPIWQIGLVVSIILAVFTIIFGIRTIDITERHPGVMIAIAFESLVKLIAFLLVGLFVSFIIYDSPMDIWELSKDQFDIEKQFEFSNLFALFGMLIIVMSAFLCLPRQFQVMFVEIKDKKTSGMARWVLPVYLLIFGFFAAVLGLAGNLNYGSSLAADAYVLFLPALDGQVWLSLFAFLGAVSAASSMVIVSTIALSTMLSNEIVFPVMFNFSRQKQQDFNHFQLQLLFIRKTLVLLVIFLSYGLLLVSPPDALSSLGEVAFGAIAQIGPALFVAFYWRRATLAGVLAGIICGFTIWTVFNLIPQLGIYAHPLENTDLPKTTVITLIGLLINVIALWLVSLGTRQSIREQMQSEFFYTDRKKIKWSLPSQPKVDIVELELLVARFIGEEKATKCFEKFHSMNQTKDNKKFNEAILFHAENTLARVLGSASAKLVTSLAISSRGMAFDQVAKLVEDNSTQQLEFSRTVLQSAIENVSEGISVIDSELKLVAWNKQYLDIFSYPEAFIYIGCPISQLIHFNLSQQGYFAKDIDLRVKKRIQYIMEGSRHNTEYKLKNGKNIRIEGSPIPGGGFVMIFSDITQYRQTEEVLKEENTDLESRVQFRTAELEQANKELALANHELIQAQTKAEQAHVKKSQYLKACSHDLLQPLSAARLFSSAISLSPRVSNEEREQIKKIDNSLEIANSLLLDLNEIARIESGNITPTIEPIEIKELFTMLANEFNALTDEYHVEFHCKMSKTYVASDITLLARIVQNFLSNAFRYAHRCDKKNQSKVLLGCRRQGNEISIQVFDNGPGIPIDKQQQVFDQFTQLNNSNVMGPKGLGLGLNIAQSLANILEHKIDLKSKPGHGCLFSVNAPMTLAPAAKEQTLPPASMSLHGVGVLCIDNEPAILDGMSKLLSAWQCQVFTAVDAQQARELYAKHEDEIDILLVDYQLDGCQDDNTIMATDMLISERNDSSCSIDPVNGIGLIKQLRAMSPYALPAILITATTGENLMALTKQHNIGYLRKIIRPLALRALMSSLLTEELAKNYSQNNT
protein production: failed

MFAVPYHQHLWRIKLALIAQNHLQLIIEVGIILYAAMVFILNLAPMSLSMVLFICIVLGIGFNIIFGLDVVALFMSFGQSEFTHPFGPIALLVTVSSLAALAIMEESGVDVRGLRGFVYLLMAGITLFGGLMHRSFLLLWLLGLFMGLFIISKSMRQRSLITVKRVAGFALIAVAGFGGLELISRVLGMTVLSPLLRIERLETFSLPSMKLVIKNTTLLGHNPMSSYWGELSSGFADGYISLPLQLILFFGLPFPVFYGILVNKKDVIDYMVPGVFGWAYDFGYITMFFLLIWCVGIIIMGLRMLSIYRERRENGSRSYLGREVLLTGALAAFMSQAIIGLFVINRTINGTALLTFIFLSSLIFANSVGLKE
protein production: failed

MFDFSIVTNWIHEMLLSVMPEGWAIFIECIAVGVCIVALYAILAIVLIYMERKVCGFFQCRLGPNRVGKWGSIQVICDVLKMLTKEIFTPKDADRFLYNLAPFMVIIASFLTFACIPFNKGAEILNFNVGVFFLLAASSIGVVGILLAGWGSNNKFSLIGAMRSGAQIISYELSVGMSIMTMVVLMGTMQFSEIVEGQADGWFIFKGHIPAVIAFIIYLIAGNAECNRGPFDLPEAESELTAGYHTEYSGMHFGFFYLAEYLNLFIVASVAATIFLGGWMPLHIIGLDGFNAVMDYIPGFIWFFAKAFFVVFLLMWIKWTFPRLRIDQILNLEWKYLVPISMVNLLLMACCVAFGFHF
protein production: failed

MFDKIHYYYFNANYEKCLNLSEQFLKESPKFALEFATLSSYKLSLFQKALYYAQELFSLNPTSFNGLMLAKSYIENLRLDEALNLLQTLLTRKDDLEDELKLELAFIYKLSNKLEESEQIFKELLSKDMYNLNLWKNYAEIYFKHDFTKALNAHEHLCHFMQDLIDKLQKGIIAEQTNLNLVKLEDRLHSKTKENLTISKIEDFLTHQILPQKAYLLFKLFRISDSLELFQSLQEANQHHAQFWQNYAKVLEFNSNYQEAYHAYKKCLSLDSHATYQFDLAYLLMRMGVDDNFEEGKKYYESRLFYAHNETFSTYHYNESLKAFNKFGVDAFKNKEVLVFCEQGFGDTIMYARCLEKLCKIASKVLFAPQSAMYEMFKNQIKFLNQNDDIFKNVKVLKNLPTNFDYAIPICSLPFFIDIKLDEILRLKTPILPQKKPHNQRKKLGIFYATPNAENSDLLRNVKFEFLFDVLKDLDYEIISFQMQLKEELPKVIEDRSKLIKNWNDTLNYLYDIDCMLSIDSAIAHLSLAMDIPTIVLLHPRFDWRWGKFENPKSYFWPKAKCFIIKEQEETKRNLQKLIKDILN
protein production: failed

MFDTKIAVILRDDLAVWQKLNVTAFLMSGIVAQTGEIIGEPYRDGAGNVYNPLSIQPIVVMATDQEALRKIHQRSLERDITTSLYIEEMFATGHDAANRQVFSHFSPDTAKVVGMALRADRKIVDKITKGAKLHA
protein production: not failed

MFEENEKEQLLYYERNKESEKCQKVWESIICKGLGYSKEEIRRDVERSRREKERLLSILYGSVFTGPKYLLYSKKWRGKTLNEIINEDREKNLNKNNFKNMDLDSTYFCELSFGYMDTAEENDDKNKKEITKQMEKKNDKVPNIRKGGNTNNSQNKRKTYHGEKNANTTNKDLDEFYSKLNYLEKRSYKNRYRNDNNNKKNNNNNNNNNNSNSNNNYYYYYSNGRSSYTNELSNEKNKYNEENSDEGNVIKYKYLPTGVFYSRVSKSFIANWIDDKTKKQVKIPYKISEYGIEKCMILAILSRNLRLSNLSNVLKYYDELTDSQKEQMLHAIRTTQKSEKLFEDIINRNGNKKNENNIINNYSNIHNDTSINNNNNNNNNNNNNIGNTIGTQHKNKNKQNANDQKNIPMKKKLIEKKKVKQSYVNEEKLPTGVYFYQGSYVANWWETNQKKQFKVPFKISEYGIARAKNLAIISRLIRSSSIPDINLILTQMENDHNLSDMDYTAISELAYKYIENMAKKE
protein production: failed

MFEFILQLSLGILAVSTFLYVLRVIKGPSIPDRVVALDAIGINLIGITALVSILLNTTAYLEVILLIGILAFIGTVAFSKFLEKGEIIENDRSR
protein production: failed

MFEGQPKGLYALALANTGERFGYYTMLAIFTLFLQAKFGYTAAETSTIFGCFLAAVYFIPFFGGILADKFGYGKMVTMGIVVMFIGYALLAIPTSDNSGKIMMFGALALIACGTGLFKGNLQVMVGNLYDAPEYSSKRDTAFSIFYMAINIGAMYAPTAATKVTNYMLGKAGLSYVPQIPSLAHQYLDGTITPANQATLESLQAAQNFTGDIATFCTTYIDKLSEAYNYGFGVACVSLIISMLIYVAFRSTFKHADYNSKQAKPANVVEEKLTPEQTKQRIVALLLVFAVVIFFWMAFHQNGLTLTFFARDYTAQEVTGLDRLGFNIVNLTFLLIVIYGLFSLFQGKTGKSKTIAGVVVMVALLCLGWSYTSMDPTINILPQIFQQFNPFFVIALTPVSLAVFGYLARKGKEPSAPRKIGIGMMIAVCGFLIMAIGSIGLPTPDALAASGIEKDALVSPNWLISTYLVLTFAELFLSPMGISFVSKVAPPKYKGMMMGGWFAATAIGNYLVAIIGYLWGGMQLWMVWSVLIVCCLLAALFIFSIMKKLEKVA
protein production: failed

MFFLRTTKRMESYSQNSNKLDFQHEARILNSIWLITALGLVATAGLAWGAKYLEITATKYDSPQMYVAIGLLLLSMYGLSKDINKINTAIAGVIYLFLISLVAIVVASLAPVSAIIVVFSTAGSMFLISMLAGLLFKFDPGSHRFIIMMTLTGLALVIIVNATLMSERPIWVISCLMIVLWSGIISHGRNKLLELTGKSHSEELWSSVRCAFIGALTLYYYFIGFFGILAAIAITLVWQRHTRFFH
protein production: failed

MFGEQLLKNPLIEFCDSVCRGCGQVMFQNNTVTGLLFFAGIFYNSTTLGVCAVLGTAASTLTAQLLGVDKPLVRAGLFGFNGTLAGIALPFFFNYEPAMLGYVALNGAFTTIIMASLLNFLGKWGVPALTAPFVLATWLLMFGVYKLSLFHPGALIAPALPSVAGLADMGTVTGRTFMEGLFKGVGEVMFQDNIVTGVIFVVAILVNSRISALFAVIGSLVGLCTALIMHSPETPVRLGLYGFNSVLCGIAMGGIFFYLNIRTFLYALGCMVLGAIATGAFSVLLSPIGMPALTWPFIVVTWLFLFAGSMFRNIAQVPTEKAGTPEDNLRSLAIGSR
protein production: not failed

MFGGIENVKAAEPKVYQFDFGSGSMEPGYIGVRASDRYDRSKGYGFQTPENMRDVAASGAGVKSDAVEFLAYGTKSNNTFNVDLPNGLYEVKVTLGNTARASVAAEGVFQVINMTGDGAEDTFQIPVTDGQLNLLVTEGKAGTAFTLSALKIKKLSDQPVTNRTIYVGGDSTVCNYYPLNSSKQAGWGQMLPHYIDKHTFQVRNMASGGQIARGFRNDGQLEAILKYIKPGDYFMLQLGINDTNPKHKESEAEFKEVMRDMIRQVKAKGADVILSTPQGRATDFTSEGIHSSVNRWYRASILALAEEEKTYLIDLNVLSSAYFTSIGPERTLGLYMDGDTLHPNRAGADALARLAVQELKRQGIAGFLEHHHHHH
protein production: not failed

MFHKALITFIVLWFFLNGLGAYDFKHCQAFFKKASLQKGGVALKELPKGVYLYYSKTYPKHAKVIKSDPFVGLYLLQSAPSEYVYTLRDLDKDALIRPMASIGDKEALETRLLVGQRGYERYAQISQKTQKNGVISNICYQMLGLGVGGNGFIETKFIKRFLNQQEPYYGDIGVRLEEHHKRLVVVQFDPFFPKNPFLKNDEILAINHQKIHSLAEFEWVVSNLKYQSLAKVEIKRNHKVKEVTLKVNKRYGGFLLKDTFLERYGIALDERFIITKIGAHLPKGLDFLKLGDRILWVNYKSVASNPKALREALSAPKIELLVLRKGFEFYIKVR
protein production: failed

MFHYTVDVSTGMNETIERLEESLKQEGFGVLWQFSVTEKLQEKGLDFSTPMVILEVCNPQEAARVLNENLLVGYFLPCKLVVYQENGTTKIGMPKPTMLVGMMNDPALKEIAADIEKRLAACLDRCR
protein production: not failed

MFIGRNQELTALNKLYQEDSFQFAVIYGRRRIGKTSLINQFLKGKRAIYFTGLEENALENLARFSDAIHAYEDPSYLDGPNFASFEQAFKYLVHLSEKNDRLILVIDEFPYLAKAYPPISSMLQSYIDHYFKQNKLFLILCGSSMPFMEKQVLGYKSPLYGRRTAQFKLKPFSLHDAEEFFPQLNKEEVFELNAITGGIPLYLSLMSPKKSLRENIKDNFLTTSAMLYAEPMSLLNQELREPASYSSIISAIAAGASRQSEISTKTGIASGALSPYLDNLIDLGIVEKRLPVTELDKARSRKTIYAIKDGMFRFWYTFVGKRVSFIERGITEPILDYIIKQLPHFMGPEFEKLSQEYLWSKLFDPDLVPEPFVNLGNWWGPDPKEKKQVEMDIVGFDDQKLNGYFGECKWKNEPISADILETLIYRSILFPTPKKNYYLFSKTGFTDKCQQLAQQVDCHLITFDMM
protein production: failed

MFIHPHTSLTFEQCQKARVSRDSRFDGRFYVAVKTTGIFCRPICPANLPKEENVEYFTDKAQALKAGYRPCLRCRPDSAPGSWAWKGVETTFQRAISLIDRGELHHHSVSELAERVGISDRYLRMLFEQYLGMSPKQYAQYQQLMFAKQLLHSSSMSVTEVGFAAGFNSTRRFNDAFQKFLKLTPSQVRRREFDGVSTNRIALSYRGELNWQHMLDFYRLRAIEGVERVSGESYQRNVCLDNSKAWFKAIKGEGNLELEFEIEEVAKLQNLVSGIRRMFDLDTDICTVEQHLDYVAPGLVSNRGIRIPGVWNAWEAGVRAVLGQQVSVKAAIGQLNLLVKTLSGDADKRFFPTPDAIANADVSFLRMPQSRKETLVRFAQFMQSNAETDPQQWLALKGIGPWTVSYAQLRGQSQPDCFLDKDLVVKKAMQRYPSLNTHTAAPWGSYATFHLWNQS
protein production: failed
